Like-named read-outs stand apart in the source and are kept apart here.
Experiments:
Sirt7 (Sirt7WT) (human) [1] = experiment: fluorescence polarization
Sirt7-CLB (human) = experiment: NanoLuc complementation
[2] = test system: isolated NanoLuc Large Bit; experiment: NanoLuc complementation
Sirt7 (Sirt7WT) (human) [3] = experiment: kinetic titration

In the case of 20 bp FAM-DNA, the Kd (Sirt7 (Sirt7WT) (human) [1]) is reported as 57.2 nM.
Substance “SMB-AcNucs (H3K18Ac small-bit nucleosome)” has a Kd (Sirt7-CLB (human); histone H3K18 acetylation) of 3.75 nM and a binding signal (fold lower Kd than without ADPr) (Sirt7-CLB (human); histone H3K18 acetylation) of 2.5.
“SMB-Nucs (unmodified small-bit nucleosome)” showed a Kd (Sirt7-CLB (human)) of 3.92 nM and a Kd [2] of over 5000 nM.
In the case of nucleosome core particle (unmodified), the Kd (Sirt7 (Sirt7WT) (human) [3]) is reported as 2.92 nM.
